Experimental data published in FireProtDB (doi:10.1073/pnas.90.18.8367).

Settings: Enterobacteria phage fd; pH 7; 25 °C; GdnHCl; CD; MOPS 50 mM; NaCl 100 mM; reversible: yes; whole UniProt chain shown

B1: DNA-Binding protein G5P wild type, P69542 (protein)
chain: MIKVEIKPSQAQFTTRSGVSRQGKPYSLNEQLCYVDLGNEYPVLVKITLDEGQPAYAPGLYTVHLSSFKVGQFGSLMIDRLRLVPAK
unfolding free energy: 9 kcal/mol
